# Data: patent US20040096942A1
# Experiments:
# [1] = molecular target: GAL4CfEcR-DEF (yeast; spruce budworm Choristoneura fumiferana); assay: cell-based or functional assay
# [2] = molecular target: GAL4DmEcR-DEF (yeast; fruit fly Drosophila melanogaster); assay: cell-based or functional assay
substance,measurement,setting,value
VP16MmRXRα(1-7)-LmUSP(8-12)-EF,"maximum fold induction of luciferase reporter, two-hybrid gene switch in NIH3T3 cells (fold induction)",[1],11000
same,"maximum fold induction of luciferase reporter, two-hybrid gene switch in NIH3T3 cells (fold induction)",[2],1760
